B1: hKRM1-Fc (human IgG Fc-fused human KRM1 ectodomain) (Fc fusion)
chain: APSPGLGPECFTANGADYRGTQNWTALQGGKPCLFWNETFQHPYNTLKYPNGEGGLGEHNYCRNPDGDVSPWCYVAEHEDGVYWKYCEIPACQMPGNLGCYKDHGNPPPLTGTSKTSNKLTIQTCISFCRSQRFKFAGMESGYACFCGNNPDYWKYGEAASTECNSVCFGDHTQPCGGDGRIILFDTLVGACGGNYSAMSSVVYSPDFPDTYATGRVCYWTIRVPGASHIHFSFPLFDIRDSADMVELLDGYTHRVLARFHGRSRPPLSFNVSLDFVILYFFSDRINQAQGFAVLYQAVKEELPQERPAVNQTVAEVITEQANLSVSAARSSKVLYVITTSPSHPPQTVPG
B2: mKrm1-Fc (human IgG1 Fc-fused mouse KRM1 ectodomain) (Fc fusion)
chain: APGPRSGPECFTANGADYRGTQSWTALQGGKPCLFWNETFQHPYNTLKYPNGEGGLGEHNYCRNPDGDVSPWCYVAEHEDGVYWKYCEIPACQMPGNLGCYKDHGNPPPLTGTSKTSNKLTIQTCISFCRSQRFKFAGMESGYACFCGNNPDYWKHGEAASTECNSVCFGDHTQPCGGDGRIILFDTLVGACGGNYSAMAAVVYSPDFPDTYATGRVCYWTIRVPGASRIHFNFTLFDIRDSADMVELLDGYTHRVLVRLSGRSRPPLSFNVSLDFVILYFFSDRINQAQGFAVLYQATKEEPPQERPAVNQTLAEVITEQANLSVSAAHSSKVLYVITPSPSHPPQTAPG

Molecular target: CVA8 virion (strain 14-943/GS/CHN/2014) (coxsackievirus A8 (CVA8), strain GS14)

Row | Binder | neutralization of CVA8 strain GS14 infection of RD cells (cell viability assay)
1 | B1 | 0.03 nM
2 | B2 | 0.32 nM
